From patent US20230338424A1 (LENTIGEN TECHNOLOGY, published 2023)

T1: recombinant human CD123 (human, UniProt P26951 19-305, limits assumed)
T1 construct: also called coated CD123
T1 sequence (looked up): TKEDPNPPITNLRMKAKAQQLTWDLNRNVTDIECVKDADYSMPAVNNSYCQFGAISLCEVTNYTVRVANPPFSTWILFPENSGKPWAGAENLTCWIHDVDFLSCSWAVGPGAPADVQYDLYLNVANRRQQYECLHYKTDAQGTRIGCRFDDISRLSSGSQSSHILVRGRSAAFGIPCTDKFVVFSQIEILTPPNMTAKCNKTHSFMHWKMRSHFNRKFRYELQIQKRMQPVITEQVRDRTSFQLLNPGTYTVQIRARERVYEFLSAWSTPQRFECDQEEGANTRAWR

T2: recombinant human CD123-Fc (human, UniProt P26951 19-305, limits assumed)
T2 construct: Treated as one molecule; also called CD123-Fc peptide (Novoprotein); recombinant IL3R-alpha Fc-tagged; not shown: Fc tag
T2 sequence (looked up): T1 sequence (looked up)

B1: scFv MB40-F08 (scFv)
scFv: QVQLVQSGAEVKKPGSSVKVSCKASGGTFSSYAISWVRQAPGQGLEWMGGIIPIFGTANYAQKFQGRVTITADESTSTAYMELSSLRSEDTAVYYCARGSGELLYASYYYYYMDVWGKGTTVTVSSGGGGSGGGGSGGGGSQSALTQPASVSGSPGQSITISCTGTSSDVGGYNYVSWYQQHPGKAPKLMIYEVSNRPSGVSNRFSGSKSGNTASLTISGLQAEDEADYYCSSYTSSSPLVFGTGTKVTVL
notes: Soluble scFv carried c-myc and His tags; also called CD123 (MB40-F08)
B2: scFv MB35-E02 (scFv)
scFv: QVQLVQSGAEVKKPGSSVKVSCKASGGTFSSYAISWVRQAPGQGLEWMGGIIPIFGTANYAQKFQGRVTITADESTSTAYMELSSLRSEDTAVYYCARHGGMATMLPYGAFDIWGQGTMVTVSSGGGGSGGGGSGGGGSDIRLTQSPSSLSASVGDRVTITCRASQGISSYLNWYQQKPGKAPKLLIYAASRLQSGVPSRFSGSGSGTDFTLTISSLQPEDFATYYCQQSYSTSLTFGGGTKVEIK
notes: Soluble scFv carried c-myc and His tags; also called CD123 (MB35-E02)
B3: scFv MB42-E02 (scFv)
scFv: QVQLVQSGAEVKKPGASVKVSCKASGYTFTSYGISWVRQAPGQGLEWMGWISAYNGNTNYAQKLQGRVTMTTDTSTSTAYMELRSLRSDDTAVYYCARGAYYDFWSGYSWFDPWGQGTLVTVSSGGGGSGGGGSGGGGSQSVLTQPPSVSVAPGQTARIPCGGNNIGSKGVHWYQQKSGQAPVMVVYDDSDRPSGIPERFSGSNSGNTATLTISRVEAGDEADYYCQVWDSSGDLVLFGGGTKLTVL
notes: Soluble scFv carried c-myc and His tags; also called CD123 (MB42-E02)
B4: scFv MB42-E12 (scFv)
scFv: QVQLVQSGAEVKKPGASVKVSCKASGYTFTSYGISWVRQAPGQGLEWMGWISAYNGNTNYAQKLQGRVTMTTDTSTSTAYMELRSLRSDDTAVYYCARGAYYDFWSSYSWFDPWGQGTLVTVSSGGGGSGGGGSGGGGSSYVLTQPPSVSVAPGKTARITCGGNNIGSKSVHWYQQKPGQAPVLVVYDDSDRPSGIPERFSGSNSGNTATLTISRVEAGDEADYYCQVWDSSSDHVVFGGGTKLTVL
notes: Soluble scFv carried c-myc and His tags; also called CD123 (MB42-E12)
B5: scFv MB42-D03 (scFv)
scFv: QVQLVQSGAEVKKPGASVKVSCKASGYTFTSYGISWVRQAPGQGLEWMGWISAYNGNTNYAQKLQGRVTMTTDTSTSTAYMELRSLRSDDTAVYYCARGAYYDFWSSYSWFDPWGQGTLVTVSSGGGGSGGGGSGGGGSSYVLTQPPSVSVAPGKTARITCGGNSIGSKSVQWYQQKPGQAPVLVIYDDSDRPSGIPERFSGSNSGNTATLTISRVEAGDEADYYCQVWDSSSDVVFGGGTKLTVL
notes: Soluble scFv carried c-myc and His tags; also called CD123 (MB42-D03)
B6: scFv MB31-A01 (scFv)
scFv: QIQLVQSGAEVKKPGSSVKVSCKASGGTFSSYAISWVRQAPGQGLEWMGGIIPIFGTANYAQKFQGRVTITADESTSTAYMELSSLRSEDTAVYYCARGSGELLYASYYYYYMDVWGKGTTVTVSSGGGGSGGGGSGGGGSQSALTQPASVSGSPGQSITISCTGTSSDVGGYNYVSWYQQHPGKAPELMIYDVSNRPSGVSNRFSGSKSGNTASLTISGLQAEDEADYYCSSYTSSSTPVVFGGGTKLTVL
notes: Soluble scFv carried c-myc and His tags (detection antibodies); also called CD123 (MB31-A01)
B7: scFv MB36-A05 (scFv)
scFv: QVQLVQSGAEVKKPGSSVKVSCKASGGTFSSYAISWVRQAPGQGLEWMGGIIPIFGTANYAQKFQGRVTITADKSTSTAYMELSSLRSEDTAVYYCARGGRNSYYYYYMDVWGKGTTVTVSSGGGGSGGGGSGGGGSQSALTQPASVSGSPGQSITISCTGTSSDVGGYNYVSWYQQHPGKAPKLMIYEVSNRPSGVSNRFSGSKSGNTASLTISGLQAEDEADYYCSSYTSSSPVVFGGGTKLTVL
notes: Soluble scFv carried c-myc and His tags; also called CD123 (MB36-A05)
B8: scFv MB40-H08 (scFv)
scFv: QVQLVQSGAEVKKPGSSVKVSCKASGGTFSSYAISWVRQAPGQGLEWMGGIIPIFGTANYAQKFQGRVTITADESTSTAYMELSSLRSEDTAVYYCARNEWYSYYYYYMGVWGKGTTVTVSSGGGGSGGGGSGGGGSQSALTQPASVSGSPGQSITISCTGTSSDVGGYNYVSWYQQHPGKAPKLMIYEVSNRPSGVSNRFSGSKSGNTASLTISGLQAEDEADYYCSSYTSSSTLVVFGGGTKLTVL
notes: Soluble scFv carried c-myc and His tags; also called CD123 (MB40-H08)
B9: scFv MB44-H01 (scFv)
scFv: QVQLVQSGAEVKKPGSSVKVSCKASGGTFSSYAISWVRQAPGQGLEWMGGIIPIFGTANYAQRFQGRVTITADESTSTAYMELSSLRSEDTAVYYCARGLGTSYYYYYMDVWGKGTTVTVSSGGGGSGGGGSGGGGSQSVLTQPPSASGSPGQSVTISCTGTSSDVGGYNYVSWYQQHPGKAPKLMIYEVSNRPSGVSNRFSGSKSGNTASLTISGLQAEDEADYYCSSYTSSSTPVVFGGGTKLTVL
notes: Soluble scFv carried c-myc and His tags; also called CD123 (MB44-H01)
B10: CAR D0127 CD123 MB35-E02 CD8 BBz (other)
chain: QVQLVQSGAEVKKPGSSVKVSCKASGGTFSSYAISWVRQAPGQGLEWMGGIIPIFGTANYAQKFQGRVTITADESTSTAYMELSSLRSEDTAVYYCARHGGMATMLPYGAFDIWGQGTMVTVSSGGGGSGGGGSGGGGSDIRLTQSPSSLSASVGDRVTITCRASQGISSYLNWYQQKPGKAPKLLIYAASRLQSGVPSRFSGSGSGTDFTLTISSLQPEDFATYYCQQSYSTSLTFGGGTKVEIKAAATTTPAPRPPTPAPTIASQPLSLRPEACRPAAGGAVHTRGLDFACDIYIWAPLAGTCGVLLLSLVITLYCKRGRKKLLYIFKQPFMRPVQTTQEEDGCSCRFPEEEEGGCELRVKFSRSADAPAYQQGQNQLYNELNLGRREEYDVLDKRRGRDPEMGGKPRRKNPQEGLYNELQKDKMAEAYSEIGMKGERRRGKGHDGLYQGLSTATKDTYDALHMQALPPR
notes: Chimeric antigen receptor on transduced human primary T cells; also called EF-1a-CD123 MB35-E02 CD8 BBz

target: T1, recombinant human CD123; test: ELISA, soluble scFv on coated recombinant human CD123
Experimental: After each round of incubation, the wells were washed 10 times for the first round, 20 times for the second round and 30 times for the third round with phosphate-buffered saline containing 0.05% Tween 20 (PBST) to remove nonspecifically bound phage. Antigen binding phage were eluted with 100 µl 10 µg/ml Trypsin diluted in PBS and mixed with TG1 competent cells for 1 hour at 37° C., and the phage was amplified from the infected cells and used in the next round of biopanning. After the third round of biopanning, 376 clones were randomly picked from the infected TG1 cells and each inoculated into 150 µl 2YT medium containing 100 µg/ml ampicillin and 200 mM glucose in 96-well plates by using the automated colony picking system (Molecular Devices, QPix 460) and were incubated at 37° C. overnight in a shaker at 300 rpm. Next day 10 µl of the bacterial cultures were used to inoculate 150 µl 2YT medium containing 100 µg/ml ampicillin and 50 µM isopropyl-β-d-thiogalactopyranoside in 96-well plates and the plates were further incubated at 30° C. overnight in a shaker at 300 rpm. […] The supernatants were incubated for 1 h at room temperature with recombinant human CD123 coated at 30 ng per well in 384-well plates and washed three times with PBST, (after overnight incubation at 4° C. it was blocked with 2% BSA in PBS containing 0.05% Tween 20 and washed three times with PBS containing 0.05% Tween 20.) After incubation the 3,3,′5,5′-tetramethylbenzidine (TMB) substrate was added, and solution absorbance at 450 nm (A450) measured. Clones that bound to CD123 with a signal to noise ratio of >5 were selected for further characterization.

Binder | binding result
B1 | binds
B2 | binds
B3 | binds
B4 | binds
B5 | binds
B6 | binds
B7 | binds
B8 | binds
B9 | binds

target: T3, CD123 on cells (MOLM-13, MOLM14, KG-1a, RS4;11-CD123) (human, UniProt P26951 19-378); test: flow cytometry, soluble scFv on CD123-positive MOLM-13 cells, anti-His-APC
T3 construct: whole, on cells; also called CD123 antigen; CD123/IL-3 receptor alpha
T3 sequence (P26951 19-378): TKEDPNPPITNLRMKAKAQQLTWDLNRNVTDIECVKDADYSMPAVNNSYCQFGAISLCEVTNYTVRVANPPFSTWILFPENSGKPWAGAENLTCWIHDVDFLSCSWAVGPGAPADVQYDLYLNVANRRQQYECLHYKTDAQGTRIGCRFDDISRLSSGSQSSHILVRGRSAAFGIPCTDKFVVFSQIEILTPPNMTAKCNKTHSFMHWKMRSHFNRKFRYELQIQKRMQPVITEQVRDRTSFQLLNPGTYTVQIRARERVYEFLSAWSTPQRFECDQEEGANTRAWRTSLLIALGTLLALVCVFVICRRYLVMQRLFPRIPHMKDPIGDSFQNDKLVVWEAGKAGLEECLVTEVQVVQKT
Experimental: Identified binders from ELISA were tested on CD123-positive the cell line MOLM-13. The CD123-negative cell line Jeko-1 CD20KO eGFP served as negative control. For positive control staining REAL270 (alpha CD123) and REAL116 (alpha CD123) antibodies were used, respectively. Soluble scFvs were expressed as described above. The bacterial pellets were disrupted by incubation with 0.3 mL TE buffer (10 mM Tris-HCl containing 1 mM EDTA, pH 8.0 at 37° C.)/well at 37° C., 250 rpm for 18 hours. Cultures were centrifuged at 4000xg, RT for 20 minutes and the supernatant was transferred to a fresh microtiter plate.
For cell staining cell number and viability were determined at MACSQuantX. A cell suspension containing needed cell number were centrifuged at 300xg, 4° C. for 10 minutes and supernatant was discarded. Cells are resuspended by addition of PEB buffer (1xPBS + 2 mM EDTA, 0.5% BSA pH 7.4 at RT) to a concentration of 1E+06 cells/mL. One hundred thousand cells per cell line were added to each well of 96-well V-bottom plate and the plate were centrifuged at 1300xg, 4° C. for 2 minutes. The supernatant was discarded, cells were resuspended in 100 µL of supernatant from periplasmatic preparation and cells were incubated for 10 minutes on ice. Cells were washed by addition of 100 µL PEB followed by centrifugation (1300 x g, 4° C. for 2 minutes), twice. Fifty microliter of secondary (Anti-His-APC conjugated antibody) or REAL antibody (diluted 1:50 in PEB buffer) per well were added and the plate is incubated for 10 minutes in the dark at 4° C. Cells were washed by addition of 100 µL PEB followed by centrifugation (1300xg, 4° C. for 2 minutes), twice. Propidium iodide was diluted 1:100 in Fixing solution (1xPBS + 2 mM EDTA + 1% PFA + 0.3% MeOH + 3% NaAzide) and washed cells were resuspended in 50 µL of the mixture. Signals are measured at MACSQuantX. Signals were analyzed using FlowLogic software. Statistical analysis was performed with VORTEX software.

Binder | binding result
B1 | binds
B2 | binds
B3 | binds
B4 | binds
B5 | binds
B6 | binds
B7 | binds
B8 | binds
B9 | binds

target: T2, recombinant human CD123-Fc; test: flow cytometry, CAR T cells stained with recombinant IL3R-alpha Fc-tagged, anti-Fc AF647
Experimental: Half million CAR T cells were washed two times in cold AutoMACS buffer supplemented with 0.5% bovine serum albumin (Miltenyi Biotec, Bergisch Gladbach, Germany) and stained with 2.5 ug/ml CD123-Fc peptide (Novoprotein, Summit, NJ), followed by anti Fc-AF647 conjugate (Jackson ImmunoResearch, West Grove, PA). The 7-Aminoactinomycin D staining (7-AAD, BD Biosciences, San Jose, CA) was added to exclude dead cells. Non-transduced cells (UTD) were used as a negative control. Cells were washed twice with AutoMACS buffer supplemented with 0.5% bovine serum albumin, resuspended in 200 ul staining buffer and acquired by flow cytometry. Flow cytometric analysis was performed on a MACSQuant® 10 Analyzer (Miltenyi Biotec), and data plots were generated using FlowJo software (Ashland, OR).
Lentiviral vectors encoding the CD123 CAR constructs were used for CAR transduction into human primary T cells at multiplicity of infection (MOI) of 40. CAR surface expression of transduced T cells by flow cytometry using recombinant IL3R-alpha Fc-tagged, followed by staining with anti-Fc Alexa Flour 647.

Binder | binding result
B10 | binds
